Source: paper PMC7367873, “Dissecting the sequence determinants for dephosphorylation by the catalytic subunits of phosphatases PP1 and PP2A” (Nature Communications, 2020)

Assays:
[1] = tested on: GFP-14-3-3β and its binding proteins; test: GFP-14-3-3β co-IP with LC-MS/MS label-free quantification, untreated versus PP1c-treated; set-up: species or system human; conditions: pairwise comparison PP1 vs untreated
GFP-14-3-3β = GFP-14-3-3β co-IP with LC-MS/MS, untreated GFP-14-3-3β versus GFP control (14-3-3 interactome); assay type: binding, human; conditions: pairwise comparison untreated vs GFP
[2] = log2 difference, label-free quantification, 3 replicates each

B1: CLPTM1L (protein, UniProt Q96KA5 1-538, looked up)
Lipid scramblase CLPTM1L: MWSGRSSFTSLVVGVFVVYVVHTCWVMYGIVYTRPCSGDANCIQPYLARRPKLQLSVYTTTRSHLGAENNIDLVLNVEDFDVESKFERTVNVSVPKKTRNNGTLYAYIFLHHAGVLPWHDGKQVHLVSPLTTYMVPKPEEINLLTGESDTQQIEAEKKPTSALDEPVSHWRPRLALNVMADNFVFDGSSLPADVHRYMKMIQLGKTVHYLPILFIDQLSNRVKDLMVINRSTTELPLTVSYDKVSLGRLRFWIHMQDAVYSLQQFGFSEKDADEVKGIFVDTNLYFLALTFFVAAFHLLFDFLAFKNDISFWKKKKSMIGMSTKAVLWRCFSTVVIFLFLLDEQTSLLVLVPAGVGAAIELWKVKKALKMTIFWRGLMPEFQFGTYSESERKTEEYDTQAMKYLSYLLYPLCVGGAVYSLLNIKYKSWYSWLINSFVNGVYAFGFLFMLPQLFVNYKLKSVAHLPWKAFTYKAFNTFIDDVFAFIITMPTSHRLACFRDDVVFLVYLYQRWLYPVDKRRVNEFGESYEEKATRAPHTD
For B1, the “Difference (log2), PP1 vs untreated” value [1] was 0.154 log2 and the “Difference (log2), untreated vs GFP” value (GFP-14-3-3β) was 0.3996 log2.

B2: CCDC18 (protein, UniProt Q5T9S5 1-1454, looked up)
Coiled-coil domain-containing …: MESSSSDYYNKDNEEESLLANVASLRHELKITEWSLQSLGEELSSVSPSENSDYAPNPSRSEKLILDVQPSHPGLLNYSPYENVCKISGSSTDFQKKPRDKMFSSSAPVDQEIKSLREKLNKLRQQNACLVTQNHSLMTKFESIHFELTQSRAKVSMLESAQQQAASVPILEEQIINLEAEVSAQDKVLREAENKLEQSQKMVIEKEQSLQESKEECIKLKVDLLEQTKQGKRAERQRNEALYNAEELSKAFQQYKKKVAEKLEKVQAEEEILERNLTNCEKENKRLQERCGLYKSELEILKEKLRQLKEENNNGKEKLRIMAVKNSEVMAQLTESRQSILKLESELENKDEILRDKFSLMNENRELKVRVAAQNERLDLCQQEIESSRVELRSLEKIISQLPLKRELFGFKSYLSKYQMSSFSNKEDRCIGCCEANKLVISELRIKLAIKEAEIQKLHANLTANQLSQSLITCNDSQESSKLSSLETEPVKLGGHQVESVKDQNQHTMNKQYEKERQRLVTGIEELRTKLIQIEAENSDLKVNMAHRTSQFQLIQEELLEKASNSSKLESEMTKKCSQLLTLEKQLEEKIVAYSSIAAKNAELEQELMEKNEKIRSLETNINTEHEKICLAFEKAKKIHLEQHKEMEKQIERLEAQLEKKDQQFKEQEKTMSMLQQDIICKQHHLESLDRLLTESKGEMKKENMKKDEALKALQNQVSEETIKVRQLDSALEICKEELVLHLNQLEGNKEKFEKQLKKKSEEVYCLQKELKIKNHSLQETSEQNVILQHTLQQQQQMLQQETIRNGELEDTQTKLEKQVSKLEQELQKQRESSAEKLRKMEEKCESAAHEADLKRQKVIELTGTARQVKIEMDQYKEELSKMEKEIMHLKRDGENKAMHLSQLDMILDQTKTELEKKTNAVKELEKLQHSTETELTEALQKREVLETELQNAHGELKSTLRQLQELRDVLQKAQLSLEEKYTTIKDLTAELRECKMEIEDKKQELLEMDQALKERNWELKQRAAQVTHLDMTIREHRGEMEQKIIKLEGTLEKSELELKECNKQIESLNDKLQNAKEQLREKEFIMLQNEQEISQLKKEIERTQQRMKEMESVMKEQEQYIATQYKEAIDLGQELRLTREQVQNSHTELAEARHQQVQAQREIERLSSELEDMKQLSKEKDAHGNHLAEELGASKVREAHLEARMQAEIKKLSAEVESLKEAYHMEMISHQENHAKWKISADSQKSSVQQLNEQLEKAKLELEEAQDTVSNLHQQVQDRNEVIEAANEALLTKESELTRLQAKISGHEKAEDIKFLPAPFTSPTEIMPDVQDPKFAKCFHTSFSKCTKLRRSISASDLTFKIHGDEDLSEELLQDLKKMQLEQPSTLEESHKNLTYTQPDSFKPLTYNLEADSSENNDFNTLSGMLRYINKEVRLLKKSSMQTGAGLNQGENV
In the case of B2, the “Difference (log2), PP1 vs untreated” value [1] is reported as 0.1672 log2 and the “Difference (log2), untreated vs GFP” value (GFP-14-3-3β) is reported as 0.2347 log2.

B3: KTN1 (protein, UniProt Q86UP2 1-1357, looked up)
Kinectin: MEFYESAYFIVLIPSIVITVIFLFFWLFMKETLYDEVLAKQKREQKLIPTKTDKKKAEKKKNKKKEIQNGNLHESDSESVPRDFKLSDALAVEDDQVAPVPLNVVETSSSVRERKKKEKKQKPVLEEQVIKESDASKIPGKKVEPVPVTKQPTPPSEAAASKKKPGQKKSKNGSDDQDKKVETLMVPSKRQEALPLHQETKQESGSGKKKASSKKQKTENVFVDEPLIHATTYIPLMDNADSSPVVDKREVIDLLKPDQVEGIQKSGTKKLKTETDKENAEVKFKDFLLSLKTMMFSEDEALCVVDLLKEKSGVIQDALKKSSKGELTTLIHQLQEKDKLLAAVKEDAAATKDRCKQLTQEMMTEKERSNVVITRMKDRIGTLEKEHNVFQNKIHVSYQETQQMQMKFQQVREQMEAEIAHLKQENGILRDAVSNTTNQLESKQSAELNKLRQDYARLVNELTEKTGKLQQEEVQKKNAEQAATQLKVQLQEAERRWEEVQSYIRKRTAEHEAAQQDLQSKFVAKENEVQSLHSKLTDTLVSKQQLEQRLMQLMESEQKRVNKEESLQMQVQDILEQNEALKAQIQQFHSQIAAQTSASVLAEELHKVIAEKDKQIKQTEDSLASERDRLTSKEEELKDIQNMNFLLKAEVQKLQALANEQAAAAHELEKMQQSVYVKDDKIRLLEEQLQHEISNKMEEFKILNDQNKALKSEVQKLQTLVSEQPNKDVVEQMEKCIQEKDEKLKTVEELLETGLIQVATKEEELNAIRTENSSLTKEVQDLKAKQNDQVSFASLVEELKKVIHEKDGKIKSVEELLEAELLKVANKEKTVQDLKQEIKALKEEIGNVQLEKAQQLSITSKVQELQNLLKGKEEQMNTMKAVLEEKEKDLANTGKWLQDLQEENESLKAHVQEVAQHNLKEASSASQFEELEIVLKEKENELKRLEAMLKERESDLSSKTQLLQDVQDENKLFKSQIEQLKQQNYQQASSFPPHEELLKVISEREKEISGLWNELDSLKDAVEHQRKKNNDLREKNWEAMEALASTEKMLQDKVNKTSKERQQQVEAVELEAKEVLKKLFPKVSVPSNLSYGEWLHGFEKKAKECMAGTSGSEEVKVLEHKLKEADEMHTLLQLECEKYKSVLAETEGILQKLQRSVEQEENKWKVKVDESHKTIKQMQSSFTSSEQELERLRSENKDIENLRREREHLEMELEKAEMERSTYVTEVRELKDLLTELQKKLDDSYSEAVRQNEELNLLKAQLNETLTKLRTEQNERQKVAGDLHKAQQSLELIQSKIVKAAGDTTVIENSDVSPETESSEKETMSVSLNQTVTQLQQLLQAVNQQLTKEKEHYQVLE
With B3 the “Difference (log2), PP1 vs untreated” value [1, 2] was 2.052 and the “Difference (log2), untreated vs GFP” value (GFP-14-3-3β; [2]) was -1.401.

B4: MAGED2 (protein, UniProt Q9UNF1 2-606, looked up)
Melanoma-associated antigen D2: SDTSESGAGLTRFQAEASEKDSSSMMQTLLTVTQNVEVPETPKASKALEVSEDVKVSKASGVSKATEVSKTPEAREAPATQASSTTQLTDTQVLAAENKSLAADTKKQNADPQAVTMPATETKKVSHVADTKVNTKAQETEAAPSQAPADEPEPESAAAQSQENQDTRPKVKAKKARKVKHLDGEEDGSSDQSQASGTTGGRRVSKALMASMARRASRGPIAFWARRASRTRLAAWARRALLSLRSPKARRGKARRRAAKLQSSQEPEAPPPRDVALLQGRANDLVKYLLAKDQTKIPIKRSDMLKDIIKEYTDVYPEIIERAGYSLEKVFGIQLKEIDKNDHLYILLSTLEPTDAGILGTTKDSPKLGLLMVLLSIIFMNGNRSSEAVIWEVLRKLGLRPGIHHSLFGDVKKLITDEFVKQKYLDYARVPNSNPPEYEFFWGLRSYYETSKMKVLKFACKVQKKDPKEWAAQYREAMEADLKAAAEAAAEAKARAEIRARMGIGLGSENAAGPCNWDEADIGPWAKARIQAGAEAKAKAQESGSASTGASTSTNNSASASASTSGGFSAGASLTATLTFGLFAGLGGAGASTSGSSGACGFSYK
With B4 the “Difference (log2), PP1 vs untreated” value [1] was 0.1347 log2 and the “Difference (log2), untreated vs GFP” value (GFP-14-3-3β) was 0.4555 log2.

B5: LBR (protein, UniProt Q14739 1-615, looked up)
Delta(14)-sterol reductase LBR: MPSRKFADGEVVRGRWPGSSLYYEVEILSHDSTSQLYTVKYKDGTELELKENDIKPLTSFRQRKGGSTSSSPSRRRGSRSRSRSRSPGRPPKSARRSASASHQADIKEARREVEVKLTPLILKPFGNSISRYNGEPEHIERNDAPHKNTQEKFSLSQESSYIATQYSLRPRREEVKLKEIDSKEEKYVAKELAVRTFEVTPIRAKDLEFGGVPGVFLIMFGLPVFLFLLLLMCKQKDPSLLNFPPPLPALYELWETRVFGVYLLWFLIQVLFYLLPIGKVVEGTPLIDGRRLKYRLNGFYAFILTSAVIGTSLFQGVEFHYVYSHFLQFALAATVFCVVLSVYLYMRSLKAPRNDLSPASSGNAVYDFFIGRELNPRIGTFDLKYFCELRPGLIGWVVINLVMLLAEMKIQDRAVPSLAMILVNSFQLLYVVDALWNEEALLTTMDIIHDGFGFMLAFGDLVWVPFIYSFQAFYLVSHPNEVSWPMASLIIVLKLCGYVIFRGANSQKNAFRKNPSDPKLAHLKTIHTSTGKNLLVSGWWGFVRHPNYLGDLIMALAWSLPCGFNHILPYFYIIYFTMLLVHREARDEYHCKKKYGVAWEKYCQRVPYRIFPYIY
In the case of B5, the “Difference (log2), PP1 vs untreated” value [1] is reported as 0.1636 log2 and the “Difference (log2), untreated vs GFP” value (GFP-14-3-3β) is reported as 2.137 log2.

B6: DDX28 (protein, UniProt Q9NUL7 1-540, looked up)
Probable ATP-dependent RNA …: MALTRPVRLFSLVTRLLLAPRRGLTVRSPDEPLPVVRIPVALQRQLEQRQSRRRNLPRPVLVRPGPLLVSARRPELNQPARLTLGRWERAPLASQGWKSRRARRDHFSIERAQQEAPAVRKLSSKGSFADLGLEPRVLHALQEAAPEVVQPTTVQSSTIPSLLRGRHVVCAAETGSGKTLSYLLPLLQRLLGQPSLDSLPIPAPRGLVLVPSRELAQQVRAVAQPLGRSLGLLVRDLEGGHGMRRIRLQLSRQPSADVLVATPGALWKALKSRLISLEQLSFLVLDEADTLLDESFLELVDYILEKSHIAEGPADLEDPFNPKAQLVLVGATFPEGVGQLLNKVASPDAVTTITSSKLHCIMPHVKQTFLRLKGADKVAELVHILKHRDRAERTGPSGTVLVFCNSSSTVNWLGYILDDHKIQHLRLQGQMPALMRVGIFQSFQKSSRDILLCTDIASRGLDSTGVELVVNYDFPPTLQDYIHRAGRVGRVGSEVPGTVISFVTHPWDVSLVQKIELAARRRRSLPGLASSVKEPLPQAT
For B6, the “Difference (log2), PP1 vs untreated” value [1] was 0.1504 log2 and the “Difference (log2), untreated vs GFP” value (GFP-14-3-3β) was 0.1408 log2.
